Assay results reported in paper PMC11372007, “Characterization of a GDS(L)-like hydrolase from Pleurotus sapidus with an unusual SGNH motif” (AMB Express, 2024).

Assays:
purified protein [1] = substrate: CCCCCCCC(=O)Oc1ccc([N+](=O)[O-])cc1; experiment: purified protein; type: biochemical, Pleurotus sapidus; settings: apparent constant, esterase assay: potassium phosphate pH 7.0, 0.5% v/v Triton X-100, 30 °C
purified protein [2] = substrate: CCCC(=O)Oc1ccc([N+](=O)[O-])cc1; experiment: purified protein; type: biochemical, Pleurotus sapidus; settings: apparent constant, esterase assay: potassium phosphate pH 7.0, 0.5% v/v Triton X-100, 30 °C

B1: PSA_Lip (Pleurotus sapidus) (protein)
chain: AVLPRDAPNGVHLAVDPKCGVAGGRFGDVNIGLKPLTSYEHIVAFGDSWTDGGAHNGEPLPPPVLTPPNPRAGGRASNGPVWVEKLASAAGATLLDFAEIGAVTDKNIWPSSLLPTTASSANDFVGQAHNYINQRNGFDPETTLYTIFLGVGDFDLSQQTGTDNLYTVAGAIVYTILELTSYPTYAKNIIVVDNYGRGIYETPSGDAFKEGIYAGLNTLHTRYGTSVGFVDLKTLWDGVLGSSPGYEAFGYTSKAACLPSSTSTSGACANPESTFYWLPGIPSAATHGLIADYVEKVLTTC
notes: no tag told; semi-native gel band ~118 kDa
Which results are given for B1?
Km (purified protein [1]): 330 µM; Vmax (purified protein [1]): 122 µM/min; kcat (purified protein [1]): 2.19 s⁻¹; kcat/Km (purified protein [1]): 6560 M⁻¹ s⁻¹; Km (purified protein [2]): 1220 µM; Vmax (purified protein [2]): 109 µM/min; kcat (purified protein [2]): 1.95 s⁻¹; kcat/Km (purified protein [2]): 1610 M⁻¹ s⁻¹
